# Data reported in patent CN116744966A.
# Biological target: SARS-CoV-2 spike protein (wild type) on pseudovirus (SARS-CoV-2) (UniProt P0DTC2)
# Experiment: cell-based or functional assay
substance,measurement,value
ACE2-Ig (positive control of the pseudovirus neutralisation assay) (Fc fusion),"IC50, pseudovirus neutralisation (positive control)",0.9 µg/mL
